Ratio binding Peptide/p60 (fold change) data for 33 molecules are collected here from patent US20190276496A1 (FUNDACI N PARA LA INVESTIGACI N M DICA APLICADA, published 2019).

First the molecules themselves.
B1: peptide of SEQ ID NO: 49 (peptide)
peptide: RDFQSFRKMWPFFAM
modifications: head-to-tail cyclic: linker L is C(=O) between the N-terminal amino group of residue 1 and the alpha carbon of residue 15
B2: peptide of SEQ ID NO: 52 (peptide)
peptide: cyclo(R[dA]FQAFRKMWPFFAM)
SMILES: CSCC[C@@H]1NC(=O)[C@H](C)NC(=O)[C@H](Cc2ccccc2)NC(=O)[C@H](Cc2ccccc2)NC(=O)[C@@H]2CCCN2C(=O)[C@H](Cc2c[nH]c3ccccc23)NC(=O)[C@H](CCSC)NC(=O)[C@H](CCCCN)NC(=O)[C@H](CCCNC(=N)N)NC(=O)[C@H](Cc2ccccc2)NC(=O)[C@H](C)NC(=O)[C@H](CCC(N)=O)NC(=O)[C@H](Cc2ccccc2)NC(=O)[C@@H](C)NC(=O)[C@H](CCCNC(=N)N)NC1=O
B3: peptide of SEQ ID NO: 39 (peptide)
peptide: Ac-GRDFQ[dA]FRKMWPFFAM-NH2
SMILES: CSCC[C@H](NC(=O)[C@H](C)NC(=O)[C@H](Cc1ccccc1)NC(=O)[C@H](Cc1ccccc1)NC(=O)[C@@H]1CCCN1C(=O)[C@H](Cc1c[nH]c2ccccc12)NC(=O)[C@H](CCSC)NC(=O)[C@H](CCCCN)NC(=O)[C@H](CCCNC(=N)N)NC(=O)[C@H](Cc1ccccc1)NC(=O)[C@@H](C)NC(=O)[C@H](CCC(N)=O)NC(=O)[C@H](Cc1ccccc1)NC(=O)[C@H](CC(=O)O)NC(=O)[C@H](CCCNC(=N)N)NC(=O)CNC(C)=O)C(N)=O
B4: peptide of SEQ ID NO: 43 (peptide)
peptide: Ac-GR[dA]FQ[dA]FRKMWPFFAM-NH2
SMILES: CSCC[C@H](NC(=O)[C@H](C)NC(=O)[C@H](Cc1ccccc1)NC(=O)[C@H](Cc1ccccc1)NC(=O)[C@@H]1CCCN1C(=O)[C@H](Cc1c[nH]c2ccccc12)NC(=O)[C@H](CCSC)NC(=O)[C@H](CCCCN)NC(=O)[C@H](CCCNC(=N)N)NC(=O)[C@H](Cc1ccccc1)NC(=O)[C@@H](C)NC(=O)[C@H](CCC(N)=O)NC(=O)[C@H](Cc1ccccc1)NC(=O)[C@@H](C)NC(=O)[C@H](CCCNC(=N)N)NC(=O)CNC(C)=O)C(N)=O
B5: peptide of SEQ ID NO: 51 (peptide)
peptide: cyclo(R[dA]FQAFRKMWPFFAM)
SMILES: CSCC[C@@H]1NC(=O)[C@H](C)NC(=O)[C@H](Cc2ccccc2)NC(=O)[C@H](Cc2ccccc2)NC(=O)[C@@H]2CCCN2C(=O)[C@H](Cc2c[nH]c3ccccc23)NC(=O)[C@H](CCSC)NC(=O)[C@H](CCCCN)NC(=O)[C@H](CCCNC(=N)N)NC(=O)[C@H](Cc2ccccc2)NC(=O)[C@H](C)NC(=O)[C@H](CCC(N)=O)NC(=O)[C@H](Cc2ccccc2)NC(=O)[C@@H](C)NC(=O)[C@H](CCCNC(=N)N)NC1=O
B6: peptide of SEQ ID NO: 40 (peptide)
peptide: Ac-GRDFQSFRKMW[dA]FFAM-NH2
SMILES: CSCC[C@H](NC(=O)[C@H](C)NC(=O)[C@H](Cc1ccccc1)NC(=O)[C@H](Cc1ccccc1)NC(=O)[C@@H](C)NC(=O)[C@H](Cc1c[nH]c2ccccc12)NC(=O)[C@H](CCSC)NC(=O)[C@H](CCCCN)NC(=O)[C@H](CCCNC(=N)N)NC(=O)[C@H](Cc1ccccc1)NC(=O)[C@H](CO)NC(=O)[C@H](CCC(N)=O)NC(=O)[C@H](Cc1ccccc1)NC(=O)[C@H](CC(=O)O)NC(=O)[C@H](CCCNC(=N)N)NC(=O)CNC(C)=O)C(N)=O
B7: peptide of SEQ ID NO: 53 (peptide)
peptide: cyclo(R[dA]FQAFRKMWPFFAM)
SMILES: CSCC[C@@H]1NC(=O)[C@H](C)NC(=O)[C@H](Cc2ccccc2)NC(=O)[C@H](Cc2ccccc2)NC(=O)[C@@H]2CCCN2C(=O)[C@H](Cc2c[nH]c3ccccc23)NC(=O)[C@H](CCSC)NC(=O)[C@H](CCCCN)NC(=O)[C@H](CCCNC(=N)N)NC(=O)[C@H](Cc2ccccc2)NC(=O)[C@H](C)NC(=O)[C@H](CCC(N)=O)NC(=O)[C@H](Cc2ccccc2)NC(=O)[C@@H](C)NC(=O)[C@H](CCCNC(=N)N)NC1=O
B8: peptide of SEQ ID NO: 38 (peptide)
peptide: Ac-GRDFQSFRKMWAFFA[dM]-NH2
SMILES: CSCC[C@H](NC(=O)[C@H](CCCCN)NC(=O)[C@H](CCCNC(=N)N)NC(=O)[C@H](Cc1ccccc1)NC(=O)[C@H](CO)NC(=O)[C@H](CCC(N)=O)NC(=O)[C@H](Cc1ccccc1)NC(=O)[C@H](CC(=O)O)NC(=O)[C@H](CCCNC(=N)N)NC(=O)CNC(C)=O)C(=O)N[C@@H](Cc1c[nH]c2ccccc12)C(=O)N[C@@H](C)C(=O)N[C@@H](Cc1ccccc1)C(=O)N[C@@H](Cc1ccccc1)C(=O)N[C@@H](C)C(=O)N[C@H](CCSC)C(N)=O
B9: peptide of SEQ ID NO: 54 (peptide)
peptide: cyclo(R[dA]FQAFRKMWPFFAM)
SMILES: CSCC[C@@H]1NC(=O)[C@H](C)NC(=O)[C@H](Cc2ccccc2)NC(=O)[C@H](Cc2ccccc2)NC(=O)[C@@H]2CCCN2C(=O)[C@H](Cc2c[nH]c3ccccc23)NC(=O)[C@H](CCSC)NC(=O)[C@H](CCCCN)NC(=O)[C@H](CCCNC(=N)N)NC(=O)[C@H](Cc2ccccc2)NC(=O)[C@H](C)NC(=O)[C@H](CCC(N)=O)NC(=O)[C@H](Cc2ccccc2)NC(=O)[C@@H](C)NC(=O)[C@H](CCCNC(=N)N)NC1=O

[ ]: non-standard residue; d: D form.

The target in the assay is human FOXP3 tagged with 6 histidines at the C terminus (human) (UniProt Q9BZS1). The assay is described as follows: SPR (ProteOn XPR36), FOXP3-6His immobilized on GLM chip, peptide 1-20 µM injected; ratio to p60 (SEQ ID NO: 1).
Sequence of human FOXP3 tagged with 6 histidines at the C terminus (human) (Q9BZS1 other isoform, or with tags, fused parts or gaps): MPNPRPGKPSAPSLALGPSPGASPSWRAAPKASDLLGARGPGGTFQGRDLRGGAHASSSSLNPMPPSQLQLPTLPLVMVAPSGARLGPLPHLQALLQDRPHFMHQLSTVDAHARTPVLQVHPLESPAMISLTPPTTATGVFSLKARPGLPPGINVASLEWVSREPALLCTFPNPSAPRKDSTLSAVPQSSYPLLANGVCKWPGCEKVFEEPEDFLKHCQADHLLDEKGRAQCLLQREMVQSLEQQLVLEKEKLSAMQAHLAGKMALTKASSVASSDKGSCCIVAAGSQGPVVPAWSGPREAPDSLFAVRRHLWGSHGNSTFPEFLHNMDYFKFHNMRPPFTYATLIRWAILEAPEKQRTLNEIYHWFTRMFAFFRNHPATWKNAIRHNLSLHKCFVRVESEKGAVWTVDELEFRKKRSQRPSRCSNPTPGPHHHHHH
Turning to H-R[dA]FQSFRKMWPFFAM-OH [peptide of SEQ ID NO: 6], the Ratio binding Peptide/p60 (fold change) worked out at 3.3 fold change.

Consider B1, for which the Ratio binding Peptide/p60 (fold change) turned out to be 5 fold change.

Turning to RDFQSFRKMWRFFAM [peptide of SEQ ID NO: 31], the Ratio binding Peptide/p60 (fold change) was determined as 2.8 fold change.

Turning to RYFQSFRKMWPFFAM [peptide of SEQ ID NO: 8], the Ratio binding Peptide/p60 (fold change) was determined as 1.4 fold change.

As for RDFQYFRKMWPFFAM [peptide of SEQ ID NO: 24], the Ratio binding Peptide/p60 (fold change) came out at 4.6 fold change.

Turning to RDFQKFRKMWPFFAM [peptide of SEQ ID NO: 25], the Ratio binding Peptide/p60 (fold change) came out at 4 fold change.

Turning to RSFQSFRKMWPFFAM [peptide of SEQ ID NO: 7], the Ratio binding Peptide/p60 (fold change) is 1.4 fold change.

RDFQRFRKMWPFFAM [peptide of SEQ ID NO: 20]: the Ratio binding Peptide/p60 (fold change) worked out at 3.7 fold change.

In the case of RDLQSFRKMWPFFAM [peptide of SEQ ID NO: 18], the Ratio binding Peptide/p60 (fold change) turned out to be 1.9 fold change.

Turning to RDFQNFRKMWPFFAM [peptide of SEQ ID NO: 21], the Ratio binding Peptide/p60 (fold change) worked out at 3.2 fold change.

Take RKFQSFRKMWPFFAM [peptide of SEQ ID NO: 12]: the Ratio binding Peptide/p60 (fold change) amounted to 2.2 fold change.

Regarding RWFQSFRKMWPFFAM [peptide of SEQ ID NO: 9], the Ratio binding Peptide/p60 (fold change) is 1.4 fold change.

As for B2, the Ratio binding Peptide/p60 (fold change) stood at 13 fold change.

On to RDYQSFRKMWPFFAM [peptide of SEQ ID NO: 17], for which the Ratio binding Peptide/p60 (fold change) worked out at 3.3 fold change.

Consider Ac-GRAFQSFRKMWAFFAM-NH2 [peptide of SEQ ID NO: 44], for which the Ratio binding Peptide/p60 (fold change) is 3 fold change.

Take RDFQSFRKMWNFFAM [peptide of SEQ ID NO: 32]: the Ratio binding Peptide/p60 (fold change) came out at 1.4 fold change.

Consider H-RAFQAFRKMWPFFAM-OH [peptide of SEQ ID NO: 42], for which the Ratio binding Peptide/p60 (fold change) came out at 4.1 fold change.

Turning to RDFQWFRKMWPFFAM [peptide of SEQ ID NO: 22], the Ratio binding Peptide/p60 (fold change) came to 2.4 fold change.

On to B3, for which the Ratio binding Peptide/p60 (fold change) was determined as 3.3 fold change.

Take RDWQSFRKMWPFFAM [peptide of SEQ ID NO: 16]: the Ratio binding Peptide/p60 (fold change) turned out to be 3.7 fold change.

Consider B4, for which the Ratio binding Peptide/p60 (fold change) was determined as 4.9 fold change.

As to B5, the Ratio binding Peptide/p60 (fold change) was determined as 21.4 fold change.

Regarding RNFQSFRKMWPFFAM [peptide of SEQ ID NO: 11], the Ratio binding Peptide/p60 (fold change) amounted to 1.4 fold change.

For the molecule RDFQSFRKMWYFFAM [peptide of SEQ ID NO: 35], the Ratio binding Peptide/p60 (fold change) was 1.3 fold change.

For B6, the Ratio binding Peptide/p60 (fold change) amounted to 2.2 fold change.

Turning to RDFQEFRKMWPFFAM [peptide of SEQ ID NO: 23], the Ratio binding Peptide/p60 (fold change) was determined as 1.3 fold change.

For B7, the Ratio binding Peptide/p60 (fold change) came to 2.2 fold change.

Turning to B8, the Ratio binding Peptide/p60 (fold change) was found to be 1.1 fold change.

On to RDFQSFRRMWPFFAM [peptide of SEQ ID NO: 29], for which the Ratio binding Peptide/p60 (fold change) is 1.4 fold change.

Consider RDFQSFRHMWPFFAM [peptide of SEQ ID NO: 28], for which the Ratio binding Peptide/p60 (fold change) came out at 2.6 fold change.

Turning to RDFQSFRKMWKFFAM [peptide of SEQ ID NO: 37], the Ratio binding Peptide/p60 (fold change) was found to be 4.1 fold change.

With B9, the Ratio binding Peptide/p60 (fold change) came out at 25.3 fold change.

Regarding RDFQSFRKMWVFFAM [peptide of SEQ ID NO: 33], the Ratio binding Peptide/p60 (fold change) was 1.3 fold change.
